Measurements as given in publication PMC4356361, “Three-dimensional structures of Plasmodium falciparum spermidine synthase with bound inhibitors suggest new strategies for drug design” (Acta Crystallographica Section D: Biological Crystallography, 2015).

Molecular target: the molecule itself
Experiment: crystal structure; hanging-drop vapour diffusion at 295 K, 0.1 M MES pH 5.6, 0.1 M ammonium sulfate, 27% PEG 3350; space group C2, three monomers in the asymmetric unit; protein pre-incubated with small-molecule ligands

B1: Plasmodium falciparum spermidine synthase, 39-residue N-terminally truncated construct (enzyme, UniProt Q8II73 40-321, looked up)
chain: SKKWFSEFSIMWPGQAFSLKIKKILYETKSKYQNVLVFESTTYGKVLVLDGVIQLTEKDEFAYHEMMTHVPMTVSKEPKNVLVVGGGDGGIIRELCKYKSVENIDICEIDETVIEVSKIYFKNISCGYEDKRVNVFIEDASKFLENVTNTYDVIIVDSSDPIGPAETLFNQNFYEKIYNALKPNGYCVAQCESLWIHVGTIKNMIGYAKKLFKKVEYANISIPTYPCGCIGILCCSKTDTGLTKPNKKLESKEFADLKYYNYENHSAAFKLPAFLLKEIENI
notes: Spermidine synthase of Plasmodium falciparum, construct lacking the first 39 N-terminal residues, in the p15-Tev-LIC vector, as described in Dufe et al. (2007); The crystals also held small-molecule ligands (MTA, dcAdoMet, putrescine, spermidine, 4MAN, 4AMA, BIPA); also called PfSpdS; SpdS; source: His-tag removed with TEV protease; not shown: His6, N-terminal, cleaved
binding result: binds
